Entries after “also recorded” stand apart in the source; their conditions may differ.
Legend:
BMP4 = target: T1, BMP4 (Homo sapiens, UniProt P12644); assay: Biacore binding to hALK1-Fc: BMP4
T1 sequence (P12644 293-408): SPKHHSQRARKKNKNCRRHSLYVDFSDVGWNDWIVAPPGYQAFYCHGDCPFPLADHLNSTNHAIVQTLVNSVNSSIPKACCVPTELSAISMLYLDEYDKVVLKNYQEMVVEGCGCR
Method: (§1) ALK1 is a type 1 receptor for ligands of the TGFβ family. Multiple members of the TGFβ family were tested for binding to a human ALK1-Fc fusion protein, using a Biacore™ system.

GDF8 = GDF8 (Homo sapiens, UniProt O14793); assay: Biacore binding to hALK1-Fc: GDF8
Method: as §1

TGFβ = TGFβ (Homo sapiens, UniProt P01137); assay: Biacore binding to hALK1-Fc: TGFβ
Method: as §1

GDF7 = target: T2, GDF7 (Homo sapiens, UniProt Q7Z4P5); assay: Biacore binding to hALK1-Fc: GDF7
T2 sequence (Q7Z4P5 322-450): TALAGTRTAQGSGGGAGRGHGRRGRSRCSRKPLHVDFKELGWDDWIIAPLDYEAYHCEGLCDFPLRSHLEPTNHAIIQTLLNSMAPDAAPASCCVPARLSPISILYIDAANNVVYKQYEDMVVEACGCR
Method: as §1

endothelial cells = assay: Endothelial cell tube forming assay on Matrigel with ECGS; assay type: cell-based; conditions: for tube formation compared with endostatin: endostatin 100 ng/ml
Excerpt: In order to evaluate the angiogenic effect of ALK1-Fc in an in vitro system, we assayed the effectiveness of the compound in reducing tube formation of endothelial cells on a Matrigel substrate. This technique is commonly used to assess neovascularization, giving both rapid and highly reproducible results. Endothelial Cell Growth Supplement (ECGS) is used to induce the formation of microvessels from endothelial cells on Matrigel, and the efficacy of anti-angiogenic compounds are then gauged as a reduction of cord formation in the presence of both the drug and ECGS over an 18 hour timecourse. As expected, addition of ECGS (200 ng/ml) induced significant cord formation, as compared to the negative control (no treatment added), which indicates basal levels of endothelial cell cord formation produced on Matrigel substrate (FIG. 5).

MDA-MB-231 cell line = assay: MDA-MB-231-Luc orthotopic breast cancer xenograft; assay type: in vivo, mouse; conditions: similar experiment; dose levels as low as 3 mg/kg
Excerpt: The MDA-MB-231 breast cancer cell line (derived from ER− cells) was stably transfected with the luciferase gene to allow for the in vivo detection of tumor growth and potential metastasis. In this study, 1×10^6 MDA-MB-231-Luc cells were implanted orthotopically in the mammary fat pad of athymic nude mice (Harlan). Tumor progression was followed by bioluminescent detection using an IVIS Spectrum imaging system (Caliper Life Sciences). An increase in the luminescence (number of photons detected) corresponds to an increase in tumor burden.
Thirty female nude mice were injected with 1×10^6 tumor cells into the mammary fat pad. Three days after tumor implantation the mice were treated with either vehicle control or mALK1-Fc (30 mg/kg) twice per week by subcutaneous (SC) injection. […] This may be expected of an antiangiogenic compound in that tumors may be able to survive to a certain size before requiring new blood vessel formation to support continued growth.

GDF5 = target: T3, GDF5 (Homo sapiens, UniProt P43026); assay: Biacore binding to hALK1-Fc: GDF5
T3 sequence (P43026 382-501): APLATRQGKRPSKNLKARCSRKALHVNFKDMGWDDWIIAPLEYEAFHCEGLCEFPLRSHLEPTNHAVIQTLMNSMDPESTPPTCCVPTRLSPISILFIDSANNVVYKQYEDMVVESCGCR
Method: as §1

MCF-7 cell line = assay: MCF-7 orthotopic breast cancer xenograft; assay type: in vivo, mouse; conditions: 10 or 30 mg/kg twice per week IP
Method: The estrogen-receptor-positive (ER+), luciferase expressing cell line, MCF-7, was also tested in an orthotopic implantation model. In this model, female nude mice are implanted subcutaneously with a 60 day slow release pellet of 17β-estradiol. Two days following pellet implantation, 5×10^6 MCF-7 tumor cells were implanted into the mammary fat pad. Mice were treated twice per week with hALK1-Fc at 3, 10 and 30 mg/kg, or vehicle control, by the IP route. Tumor progression was followed by bioluminescent imaging on a weekly basis with an IVIS-Spectrum imager (Caliper Life Sciences). In vehicle treated mice tumors progressed rapidly until study day 26 (FIG. 15). After day 26, there were fluctuations in tumor luminescence until the conclusion of the study at day 60 (when the estradiol pellets were depleted). These fluctuations are due to a common feature of this model in that the rapid tumor growth can exceed the angiogenic response of the host animals leading to tumor necrosis and a concomitant drop-off in luminescent signal. The remaining cells continue to grow leading to an increased signal.

GDF11 = GDF11 (Homo sapiens, UniProt O95390); assay: Biacore binding to hALK1-Fc: GDF11
Method: as §1

BMP2 = target: T4, BMP2 (Homo sapiens, UniProt P12643); assay: Biacore binding to hALK1-Fc: BMP2
T4 sequence (P12643 283-396): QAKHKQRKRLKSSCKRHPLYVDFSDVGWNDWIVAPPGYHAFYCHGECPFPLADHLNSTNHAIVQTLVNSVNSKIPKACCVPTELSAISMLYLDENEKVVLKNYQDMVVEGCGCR
Method: as §1

ocular angiogenesis = assay: Mouse corneal micropocket assay; assay type: in vivo; conditions: intraperitoneally; identical weight/weight dosages
Excerpt: In preferred embodiments, an ALK1 ECD polypeptide binds to one or more of GDF5, GDF6, GDF7, BMP9 and BMP10. […] Binding may be assessed using purified proteins in solution or in a surface plasmon resonance system, such as a Biacore™ system. […] Bioassays for angiogenesis inhibitory activity include the chick chorioallantoic membrane (CAM) assay, the mouse corneal micropocket assay, or an assay known in the art for measuring the effect of administering isolated or synthesized proteins on implanted tumors. The CAM assay is described by O'Reilly, et al., in “Angiogenic Regulation of Metastatic Growth” Cell, 1994; 79 (2):315-328. Briefly, 3 day old chicken embryos with intact yolks are separated from the egg and placed in a petri dish. After 3 days of incubation, a methylcellulose disc containing the protein to be tested is applied to the CAM of individual embryos. After 48 hours of incubation, the embryos and CAMs are observed to determine whether endothelial growth has been inhibited. The mouse corneal micropocket assay involves implanting a growth factor-containing pellet, […] of capillaries that are elaborated in the cornea. Other assays are described in the Examples.
Similar data were obtained when a Matrigel plug impregnated with VEGF was implanted in a non-ocular location.

TGFβ, sequence (P01137 279-390): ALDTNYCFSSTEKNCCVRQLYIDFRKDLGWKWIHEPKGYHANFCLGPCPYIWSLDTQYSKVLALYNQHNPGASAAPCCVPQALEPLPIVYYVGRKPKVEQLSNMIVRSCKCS
GDF11, sequence (O95390 299-407, species assumed): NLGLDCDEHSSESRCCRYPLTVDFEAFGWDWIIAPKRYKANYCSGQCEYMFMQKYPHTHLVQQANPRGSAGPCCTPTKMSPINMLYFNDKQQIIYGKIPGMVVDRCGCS

hALK1-Fc: extracellular domain of human ALK1 (amino acids 22-120) fused to a human IgG1 Fc with a minimal linker (SEQ ID NO:3/14)
binding to hALK1-Fc (BMP4): failed to show substantial binding; also recorded: only limited binding | binding to hALK1-Fc (GDF8): failed to show substantial binding | binding to hALK1-Fc (TGFβ): failed to show substantial binding | Kd (GDF7): ~0.05 µM | cord formation (endothelial cells; 100 ng/ml, ECGS 200 ng/ml, 18 hour): cord formation was visibly reduced | tube formation compared with endostatin (endothelial cells; ECGS): more potent anti-angiogenic activity than the negative control endostatin | tube formation compared with endostatin (endothelial cells; ECGS, listed as ACE): to a greater degree than the positive control, Endostatin | neovascularization (quantification of vessel length) (endothelial cells; every concentration, ECGS): reduced neovascularization to basal levels | tumor progression (bioluminescence) (MDA-MB-231 cell line): similar, if slightly lesser, effects | Kd (GDF5): ~0.05 µM | tumor size / growth (bioluminescence) (MCF-7 cell line): maintain tumor size at a constant level; also recorded: significant growth-delaying effect | binding to hALK1-Fc (GDF11): failed to show substantial binding | binding to hALK1-Fc (BMP2): failed to show substantial binding; also recorded: only limited binding | ocular angiogenesis (ocular angiogenesis): significantly inhibited ocular angiogenesis; also recorded: to the same degree as anti-VEGF; also recorded: comparable effects
